Data as given in patent WO2015037992A1 (dated 2015).

Molecular target: T1, HPeV1 VP1 (recombinant capsid protein, his-tag) (human parechovirus 1 (Harris), UniProt Q66578 543-773)
T1 sequence: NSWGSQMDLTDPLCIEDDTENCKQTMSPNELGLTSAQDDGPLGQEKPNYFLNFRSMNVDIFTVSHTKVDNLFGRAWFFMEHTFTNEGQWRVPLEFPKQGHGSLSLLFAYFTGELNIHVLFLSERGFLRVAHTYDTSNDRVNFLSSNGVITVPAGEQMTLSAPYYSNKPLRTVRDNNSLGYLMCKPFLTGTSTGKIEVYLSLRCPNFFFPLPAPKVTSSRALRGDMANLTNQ

B1: AM18 (antibody, V domains shown)
VH: QVQFMQSGAEVKKPGASVKVSCKASGDTFSNFAVHWVRQAPGQRPEWMGWVNAGDSNLKYSQRFQGRLIITRDTFASTVYLDLSSLTSKDTAVYYCAGGNFGGNSATFDYWGQGTLVTVSS
VL: EIVLTQSPGTLSLSPGERATLSCRASQSVSDNYLAWYQQKPGQAPRLLIYGASHKSTGIPDRFSGSGSGTDFTLTISRLEPEDFAVYYCQQYGGSPLTFGGGTKVEIKR
Binder B1 has a Kd of 0.0115 nM, a koff of 2.3e-06 s⁻¹ and a kon of 208000 M⁻¹ s⁻¹.
